We go through 27 sequences from the supplement of paper PMC9170038.

The data set concerns MS2 coat protein. Kind of data set: apparent KD of MS2 coat protein; designed switch direction (-1 OFF switch, 1 ON switch): 1; higher = weaker reporter binding. A digest of the protocol: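 Each step of the titration lasted 0.8–1.5 h at the lowest concentration and 10–20 min at the highest. The protein, SNAP-549-labelled MS2 coat protein, went from 0.7 or 1.5 nM doubling to 3 µM over RNA switches transcribed on Illumina chips by stalled E. coli RNA polymerase. Normalised cluster fluorescence was curve-fitted, and the per-design median over clusters is given as apparent KD.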

Where [1] appears, read: input ligand: microRNA oligo, concentration not stated.
[2] abbreviates: Eterna round: R95, input ligand: FMN 200 uM.
Where [3] appears, read: Eterna round: R95, input ligand: microRNA oligo, concentration not stated.
Where [4] appears, read: Eterna round: R95, input ligand: none.

Regarding “UUAAUGAAGUAAGGAUAUACAUGAGGAUCACUCGUAGAAGGUACUAAACAUGAGGAUCACCCAUGUACCGGUCCGUAGACUGGA [JL SSNG1 1.01] (Eterna round: R96, puzzle: Same State NG 1)”, the “apparent KD of MS2 coat protein” value runs as follows: (input ligand: FMN 200 uM) 472 nM; under setting [1], 157 nM; (input ligand: none) 572 nM.

In the case of “UUGAUGUACUGAGGAUAUCGUGUCGUCUGAUUUGACAUGAGGAUCACCCAUGUGGGAAGUGGUAUCGAGAAGGCAGUUUUCUUA [JR_SSNG2_Sub028] (Eterna round: R96, puzzle: Same State NG 2)”, the “apparent KD of MS2 coat protein” value came to 151 nM (input ligand: FMN 200 uM), 351 nM under setting [1] and 745 nM (input ligand: none).

For the sequence “AGAUCAUGACGAGGAUAUGGAACAUGAGGAUCACCCAUGUAUGUUCCAUAACGCGAACGACGAAUCCAGAAGGCGUCGUGGUCA [JL SSNG2 1.09] (Eterna round: R96, puzzle: Same State NG 2)”, the “apparent KD of MS2 coat protein” value was determined as 7.15 nM (input ligand: FMN 200 uM), 18.6 nM under setting [1] and 28.3 nM (input ligand: none).

For “UGGUACAUGGGAGGAUAUCUCGUAGAGACAUGAGGAUCACCCAUGUAGAUGGCCGGUAACCGGGAAGAGAAGGCCCAUGUACCU [JL SSNG1 3.66] (Eterna round: R96, puzzle: Same State NG 2)”, the “apparent KD of MS2 coat protein” value runs as follows: (input ligand: FMN 200 uM) 203 nM; under setting [1], 56.1 nM; (input ligand: none) 82.6 nM.

“GGUCCAGCCUGAGCUGGACCGAAGCAUGUACAUGAGGAUCACCCAUGUCAUGUACAGGCUUUUUGCUCGUCUUAUUG [JL-shm-2.12 JL Mod] (puzzle: Sensor for hsa-mir-208a)”: the “apparent KD of MS2 coat protein” value is, setting by setting: under setting [2], 685 nM; under setting [3], 15.7 nM; under setting [4], 694 nM.

Take “UGUCCAGCCUGAGCUGGACAAAAGCAUGUACAUGAGGAUCACCCAUGUUCAUGUACAAGCUUUUUGCUCGUCUUAGA [salish99_208a_r3_064] (puzzle: Sensor for hsa-mir-208a)”: the “apparent KD of MS2 coat protein” value under setting [2] came to 480 nM, the “apparent KD of MS2 coat protein” value under setting [3] is 15.8 nM and the “apparent KD of MS2 coat protein” value under setting [4] stood at 587 nM.

On to “GGAAUAUGAUGUUACAUGAGGAUCACCCAUGUAGUGAUAACUAAGGAUAUUUGAAAGGAAGGAGAAGAGAAGGUAGGAUCAUAA [AK SSNG3-V2-12] (Eterna round: R96, puzzle: Same State NG 3)”, for which the “apparent KD of MS2 coat protein” value worked out at 50.9 nM (input ligand: FMN 200 uM), 34.3 nM under setting [1] and 55.4 nM (input ligand: none).

“GGGCAGAGGGACAAGGAUAUGUCAGGAGAGACAUGAGGAUCACCCAUGUGGAGGUUGGAGCAGAGACAGAAGGUGUACGGAGCGA [JR_SS2_Sub011] (puzzle: Same State 2)”: the “apparent KD of MS2 coat protein” value is 34.4 nM under setting [2], 105 nM under setting [3] and 107 nM under setting [4].

For “AUAGUUGCCGAAGGAUAUGAUGAGGAUCACCCAUCAGAAGGUCGGCUAUUGGGUGGACAUGAGGAUCACCCGUGUUCUUUGGUC (Eterna round: R96, puzzle: Same State NG 1)”, the “apparent KD of MS2 coat protein” value (input ligand: FMN 200 uM) is 30.6 nM, the “apparent KD of MS2 coat protein” value under setting [1] was 22.5 nM and the “apparent KD of MS2 coat protein” value (input ligand: none) stood at 32.3 nM.

“AGCUAUUAAUCAGGAUAUGGUCACAUGAGGAUCACCCAUGUGUAGAUGAUAAAAUGUGGUCAACACUAGAAGGGAUUGCUAACA [SameState NG2 #61] (Eterna round: R96, puzzle: Same State NG 2)”: the “apparent KD of MS2 coat protein” value (input ligand: FMN 200 uM) is 26.8 nM, the “apparent KD of MS2 coat protein” value under setting [1] stood at 25.1 nM and the “apparent KD of MS2 coat protein” value (input ligand: none) is 37 nM.

Turning to “GGAGCUGUUAUAGGAUAUCCCGCUCAUUACGCGGGAGAAGGGUGACGCUCACAUGAGGAUCACCCAUGUGGCGUUCCAAAAUAA [Reesti] (Eterna round: R96, puzzle: Same State NG 1)”, the “apparent KD of MS2 coat protein” value runs as follows: (input ligand: FMN 200 uM) 8.43 nM; under setting [1], 7.1 nM; (input ligand: none) 12.6 nM.

As for “UCUUGGUUUUUGCUCGUUUUUUGUGUUGAACAUGAGGAUCACCCAUGUAUUGUACAAUCCAAUUUAAUAAUGGUCCA [Mod of one of JR's submissions 3] (puzzle: Sensor for hsa-mir-208a)”, the “apparent KD of MS2 coat protein” value by setting is: under setting [2], 44.2 nM; under setting [3], 42.2 nM; under setting [4], 47.8 nM.

Take “AAUUAUUAACAUGAGGAUCACCCAUGUAUUUUUUGCUCGUCAUGUAUUAUUAUUAUUAUUAUUAUUAUUAUUAUUAA [my first RNA] (puzzle: Sensor for hsa-mir-208a version 2)”: the “apparent KD of MS2 coat protein” value worked out at 26.8 nM under setting [2], 17.1 nM under setting [3] and 37.8 nM under setting [4].

Regarding “CUGAGCGAUCAAGGAUAUCACGUCGUUUAGACGUGAGAAGGUGAUCCAUACAUGAGGAUCACCCAUGUAUAACAUGAAGCUCAG [SSNG1/8-A3] (Eterna round: R96, puzzle: Same State NG 1)”, the “apparent KD of MS2 coat protein” value runs as follows: (input ligand: FMN 200 uM) 646 nM; under setting [1], 57 nM; (input ligand: none) 1540 nM.

As to “GGUAAGAAUUAAGGAUAUUGAUUACAUAUGUUUAACAUGAGGAUCACCCAUGUGGGUUGCGGUAUCGAGAAGGUAAAAUAAUAG [Mat - same State NG 2 - JL mod - D83] (Eterna round: R96, puzzle: Same State NG 2)”, the “apparent KD of MS2 coat protein” value is, setting by setting: (input ligand: FMN 200 uM) 145 nM; under setting [1], 170 nM; (input ligand: none) 170 nM.

“GUAGCAUACCGAGGAUAUUCAUAACAUGAGGAUCACCCAUGUUAGGCCAGCAUUAGCUGGCCUUGGGAGAAGGCGGAAUGCUAC [Xeonanis - 20 Mod52] (Eterna round: R96, puzzle: Same State NG 2)”: the “apparent KD of MS2 coat protein” value was 17.5 nM (input ligand: FMN 200 uM), 14.5 nM under setting [1] and 22.2 nM (input ligand: none).

Regarding “AGUCGAGCCUGAGCUCGACAAAAGCAUGUACAUGAGGAUCACCCAUGUCAUGUACAAGCUUUUUGCUCGUCUUAAAA [Mat - hsa-mir-208a - Mod of JL - D19] (puzzle: Sensor for hsa-mir-208a)”, the “apparent KD of MS2 coat protein” value is, setting by setting: under setting [2], 238 nM; under setting [3], 13.5 nM; under setting [4], 264 nM.

As for “AACGGUGCUUGAAAUAGUCACAUGAGGAUCACCCAUGUUAGGCAGGAUAUGUGUCUAAGACGACCGCAGAAGGGCUCAAGCGAU [Eternabot solution 41] (Eterna round: R96, puzzle: Same State NG 3)”, the “apparent KD of MS2 coat protein” value (input ligand: FMN 200 uM) is 49.5 nM, the “apparent KD of MS2 coat protein” value under setting [1] came out at 26.9 nM and the “apparent KD of MS2 coat protein” value (input ligand: none) was found to be 34.6 nM.

For “GUAGCAUACCGAGGAUAUUCAUAAUACAUGAGGAUCACCCAUGUUAAUAAUAGGCGAAAGCCUUGGGAGAAGGCGGAAUGCUAC [Xeonanis - 20 Mod69] (Eterna round: R96, puzzle: Same State NG 2)”, the “apparent KD of MS2 coat protein” value was 11.4 nM (input ligand: FMN 200 uM), 9.05 nM under setting [1] and 16.2 nM (input ligand: none).

In the case of “UCUUGGUUUUUGCUCGUUUUUUGUGUUGAACAUGAGGAUCACCCAUGUAUUGUACAGUCCAAUUUGAUAAUGGUCCG [JMF 54] (puzzle: Sensor for hsa-mir-208a)”, the “apparent KD of MS2 coat protein” value is, setting by setting: under setting [2], 37.6 nM; under setting [3], 32.3 nM; under setting [4], 44 nM.

Take “AAGAAAGACGCAGGAUAUCAGUGCAGACCGCACUGAGAAGGGUGAGACAUGAGGAUCACCCAUGUAACACGACAAAACGUCGUG [Anritiat] (Eterna round: R96, puzzle: Same State NG 1)”: the “apparent KD of MS2 coat protein” value by setting is: (input ligand: FMN 200 uM) 111 nM; under setting [1], 118 nM; (input ligand: none) 13.9 nM.

In the case of “GCGAGCGUACUUGCAACAUGAGGAUCACCCAUGUUAACUGGACAGGAUAUGGUACCGUUUCGGUACCAGAAGGGUUCAUCAUGU [JL SSNG3 3.67] (Eterna round: R96, puzzle: Same State NG 3)”, the “apparent KD of MS2 coat protein” value runs as follows: (input ligand: FMN 200 uM) 74.1 nM; under setting [1], 147 nM; (input ligand: none) 183 nM.

For “AUUAAACAUGAGGAUCACCCAUGUCAACAAAGUCGAGGAUAUGGGCAAAUAAAAUAUGAACCAGAAGGCGAAUAAU [salish99_ss1_r3_064] (Eterna round: R96, puzzle: Same State 1)”, the “apparent KD of MS2 coat protein” value is, setting by setting: (input ligand: FMN 200 uM) 32.9 nM; under setting [1], 208 nM; (input ligand: none) 263 nM.

With “GUGGUCAGACAUGAGGAUCACCCAUGUGGAAUAAAUAAGGAGAAGGAUAUGCAAUAUAGGAUAUAGCAGAAGGUUUGGUUGGUG (Eterna round: R96, puzzle: Same State NG 3)”, the “apparent KD of MS2 coat protein” value under setting [1] is 69.6 nM.

Regarding “GUUAUACAUGAGGAUCACCCAUGUCAAUGUAGUCGAGGAUAUGGGCAGCUGUGAGGCGUACUAGAAGGCGAAGAGG [JL-ss1-3.10 ViennaUCT mod] (puzzle: Same State 1)”, the “apparent KD of MS2 coat protein” value was 86.1 nM under setting [2], 198 nM under setting [3] and 170 nM under setting [4].

“CGGCUCCGUGGAGGAUAUGGGCCUGCCCGGGAUACCGGGCCUAACACAUGAGGAUCACCCAUGUCCCAGAAGGCCGCUGGAGCC [Cebeladi] (Eterna round: R96, puzzle: Same State NG 2)”: the “apparent KD of MS2 coat protein” value (input ligand: FMN 200 uM) is 12.7 nM, the “apparent KD of MS2 coat protein” value under setting [1] was 26.2 nM and the “apparent KD of MS2 coat protein” value (input ligand: none) amounted to 52.3 nM.

With “GUUUGAUGGUGAGGAUAUGUACAAAGAUAGGGUAUAGAAGGCAUGCGCCGGGAAACCGCGGUACAUGAGGAUCACCCAUGUGUC [Eternabot solution 36] (Eterna round: R96, puzzle: Same State NG 1)”, the “apparent KD of MS2 coat protein” value came to 207 nM (input ligand: FMN 200 uM), 54.9 nM under setting [1] and 121 nM (input ligand: none).
